Experiment [1] addresses T1, human CD73 on SK-OV-3 cells (human ovarian adenocarcinoma cells) (human, UniProt P21589 27-549).
T1 sequence (looked up): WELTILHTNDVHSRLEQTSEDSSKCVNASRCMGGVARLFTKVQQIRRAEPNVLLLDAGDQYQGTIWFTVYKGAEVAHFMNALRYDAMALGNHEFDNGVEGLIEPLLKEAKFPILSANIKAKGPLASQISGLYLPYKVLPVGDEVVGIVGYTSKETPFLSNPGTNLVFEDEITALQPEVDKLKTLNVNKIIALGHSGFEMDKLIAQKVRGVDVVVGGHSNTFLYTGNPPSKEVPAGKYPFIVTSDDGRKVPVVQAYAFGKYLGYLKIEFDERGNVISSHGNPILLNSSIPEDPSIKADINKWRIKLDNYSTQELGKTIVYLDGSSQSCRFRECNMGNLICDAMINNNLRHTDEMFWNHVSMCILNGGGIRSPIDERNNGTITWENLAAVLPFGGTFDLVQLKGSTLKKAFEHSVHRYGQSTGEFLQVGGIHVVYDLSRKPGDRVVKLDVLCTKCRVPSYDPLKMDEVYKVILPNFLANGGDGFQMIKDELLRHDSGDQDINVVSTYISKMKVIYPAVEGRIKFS
As to the kind of experiment: cell-based or functional assay.

The target of experiment [2] is T2, monkey CD73 on CHOK1-cynoCD73 cells (monkey, UniProt A0A2K5V5U7 27-549, GPI anchor at the C-terminus of the mature chain (paragraph 3 says CD73 is GPI-anchored). The propeptide 550-574 is removed.).
T2 sequence: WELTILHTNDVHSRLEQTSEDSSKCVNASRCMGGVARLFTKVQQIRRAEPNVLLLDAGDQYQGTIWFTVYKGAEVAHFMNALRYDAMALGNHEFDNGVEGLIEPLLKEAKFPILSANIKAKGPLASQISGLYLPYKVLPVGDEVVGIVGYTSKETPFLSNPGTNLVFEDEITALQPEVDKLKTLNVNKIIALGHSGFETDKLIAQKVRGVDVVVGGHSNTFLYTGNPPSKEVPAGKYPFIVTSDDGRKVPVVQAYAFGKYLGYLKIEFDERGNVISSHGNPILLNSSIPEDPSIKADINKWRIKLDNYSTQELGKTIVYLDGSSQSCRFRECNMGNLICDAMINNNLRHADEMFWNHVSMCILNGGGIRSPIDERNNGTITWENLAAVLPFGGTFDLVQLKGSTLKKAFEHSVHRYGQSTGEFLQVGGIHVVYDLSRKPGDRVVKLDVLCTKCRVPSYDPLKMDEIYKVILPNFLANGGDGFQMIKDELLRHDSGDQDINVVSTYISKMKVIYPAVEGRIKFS
As to the kind of experiment: cell-based or functional assay.

Experiment [3] deals with T3, recombinant human CD73 protein (human, UniProt P21589 27-547, limits assumed).
T3 construct: Bought recombinant protein; the assays only say recombinant human CD73; also called rhCD73; recombinant hCD73 protein
T3 sequence (looked up): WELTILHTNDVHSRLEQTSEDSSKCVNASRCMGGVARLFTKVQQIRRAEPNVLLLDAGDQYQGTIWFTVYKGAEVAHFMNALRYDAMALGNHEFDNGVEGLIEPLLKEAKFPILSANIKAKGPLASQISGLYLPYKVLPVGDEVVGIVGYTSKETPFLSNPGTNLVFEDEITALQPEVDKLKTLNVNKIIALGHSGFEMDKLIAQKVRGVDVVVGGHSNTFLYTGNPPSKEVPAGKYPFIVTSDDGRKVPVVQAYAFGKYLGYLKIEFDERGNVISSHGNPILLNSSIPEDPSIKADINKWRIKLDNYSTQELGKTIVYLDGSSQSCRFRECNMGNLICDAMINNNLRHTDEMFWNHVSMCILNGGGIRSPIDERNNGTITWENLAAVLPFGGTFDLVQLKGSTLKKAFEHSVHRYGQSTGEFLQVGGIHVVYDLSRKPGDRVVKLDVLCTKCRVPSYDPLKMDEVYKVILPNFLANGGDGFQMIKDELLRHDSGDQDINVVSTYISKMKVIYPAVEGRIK
The experiment is described as follows: Biacore (SPR), CQ137 immobilised, CD73 protein 2.5 nM-40 nM. As for the experimental part: The affinity of CQ137 to recombinant hCD73 protein was determined by Biacore, CQ137 was cured.

For experiment [4], the target named is T4, recombinant monkey CD73 protein (monkey, UniProt A0A2K5V5U7 27-549).
T4 construct: Monkey species not further named for the recombinant protein (the cell line is called cynoCD73)
T4 sequence: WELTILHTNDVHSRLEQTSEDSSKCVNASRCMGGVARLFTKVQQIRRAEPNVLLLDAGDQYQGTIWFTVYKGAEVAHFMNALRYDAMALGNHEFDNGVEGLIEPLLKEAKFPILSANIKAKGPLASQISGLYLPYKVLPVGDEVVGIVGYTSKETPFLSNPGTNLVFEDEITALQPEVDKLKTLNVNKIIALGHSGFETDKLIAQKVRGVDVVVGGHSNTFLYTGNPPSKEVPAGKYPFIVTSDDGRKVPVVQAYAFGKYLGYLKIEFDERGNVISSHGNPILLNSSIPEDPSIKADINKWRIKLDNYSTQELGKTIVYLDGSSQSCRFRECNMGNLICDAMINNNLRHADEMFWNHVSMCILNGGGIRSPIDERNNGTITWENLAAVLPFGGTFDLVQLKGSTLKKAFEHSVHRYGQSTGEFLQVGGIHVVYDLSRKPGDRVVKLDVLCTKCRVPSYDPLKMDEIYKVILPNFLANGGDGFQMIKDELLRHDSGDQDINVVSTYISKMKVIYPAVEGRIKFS
As to the kind of experiment: ELISA, recombinant monkey CD73 coated at 3 ug/mL. As for the experimental part: (§1) The recombinant monkey CD73 protein was packaged in plates according to a 3 μg/mL and a gradient diluted CQ137 was added.

In experiment [5] the target is T1, human CD73 on SK-OV-3 cells (human …). As to the kind of experiment: flow cytometry on SK-OV-3 cells. As for the experimental part:
4×10⁵ cells SK-OV-3 were taken, triple gradient (0.009-20 μg/ml) dilution of CQ137 protein was added, incubated for 1 h, washed three times with PBS, Anti-hFC-APC (purchased from Jackson immunology) was added, and detected by flow cytometry.

Experiment [6] has as its target T4, recombinant monkey CD73 protein. The experiment is described as follows: ELISA, plate coated with recombinant monkey CD73 at 3 µg/mL. How it is done: as §1
For experiment [7], the target named is T2, monkey CD73 on CHOK1-cynoCD73 cells. The experiment is described as follows: flow cytometry on CHOK1-cynoCD73 cells. As for the experimental part:
The full length of monkey CD73 was constructed on a eukaryotic expression vector containing NEO resistance, CHO-K1 cells were transfected, G418 was used for screening to obtain a CHOK1-cynoCD73 cell strain. 4×10⁵ CHOK1-cynoCD73 cells were taken and a gradient diluted CQ137 protein was added, after incubation was performed for 1 h, the cells were washed with PBS for three times, […] (purchased from Jackson Immunology) was added, and detected by flow cytometry.

B1: CQ137 antibody protein (human mouse chimeric anti-CD73 full-length antibody) (antibody, human IgG1, kappa, V domains shown)
VH: EVQLQQSGPELVKPGASVKISCKASGYSFTGYYIHWVKQSHVKSLEWIGRINPYNGATTYNQNFKDKASLTVDKSSSTAYMELHSLTSEDSAVYYCARFHYGAPDYWGQGTTLTVSS
VL: DILMTQSPSSMYASLGERVTITCKASQDINTYLTWFQQKPGKSPKTLIYRANILVDGVPSRFSGSGSGQDYSLTISSLEFEDMGIYYCLQYDEFPLTFGAGTKLELKR
For B1, the “IC50 of inhibition of CD73 enzyme activity on SK-OV-3 cells” value in experiment [1] stood at 371 ng/mL. The “IC50 of inhibition of CD73 enzyme activity on CHOK1-cynoCD73 cells” value in experiment [2] stood at 990 ng/mL. The Kd in experiment [3] is 0.0865 nM. Besides, in experiment [3], the koff came out at 6.04e-05 s⁻¹. In addition, the kon in experiment [3] is 698000 M⁻¹ s⁻¹. Besides, the 50% effective concentration (EC50 (read off the curve)) in experiment [4] was about 200 ng/mL. The results for the EC50 in experiment [5], in experiment [6] and in experiment [7] were 0.588 ng/mL, 217 ng/mL and 0.0999 ng/mL, respectively.
